The results in this text go back to IntAct's records for PubMed 25910212.

The chains are these.
B1: U4/U6 small nuclear ribonucleoprotein Prp31 (Homo sapiens), Q8WWY3 (parent)
chain: MSLADELLADLEEAAEEEEGGSYGEEEEEPAIEDVQEETQLDLSGDSVKTIAKLWDSKMFAEIMMKIEEYISKQAKASEVMGPVEAAPEYRVIVDANNLTVEIENELNIIHKFIRDKYSKRFPELESLVPNALDYIRTVKELGNSLDKCKNNENLQQILTNATIMVVSVTASTTQGQQLSEEELERLEEACDMALELNASKHRIYEYVESRMSFIAPNLSIIIGASTAAKIMGVAGGLTNLSKMPACNIMLLGAQRKTLSGFSSTSVLPHTGYIYHSDIVQSLPPDLRRKAARLVAAKCTLAARVDSFHESTEGKVGYELKDEIERKFDKWQEPPPVKQVKPLPAPLDGQRKKRGGRRYRKMKERLGLTEIRKQANRMSFGEIEEDAYQEDLGFSLGHLGKSGSGRVRQTQVNEATKARISKTLQRTLQKQSVVYGGKSTIRDRSSGTASSVAFTPLQGLEIVNPQAAEKKVAEANQKYFSSMAEFLKVKGEKSGLMST
partner: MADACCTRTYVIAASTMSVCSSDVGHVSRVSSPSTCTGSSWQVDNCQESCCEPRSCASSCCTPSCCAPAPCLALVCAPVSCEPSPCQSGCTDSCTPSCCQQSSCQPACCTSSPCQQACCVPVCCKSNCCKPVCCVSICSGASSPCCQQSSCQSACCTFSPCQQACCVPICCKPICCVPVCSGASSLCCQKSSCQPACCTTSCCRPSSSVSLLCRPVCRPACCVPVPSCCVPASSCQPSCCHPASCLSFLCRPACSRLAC
B2: Sulfite oxidase, mitochondrial (Homo sapiens), P51687 (parent)
chain: MLLLHRAVVLRLQQACRLKSIPSRICIQACSTNDSFQPQRPSLTFSGDNSSTQGWRVMGTLLGLGAVLAYQDHRCRAAQESTHIYTKEEVSSHTSPETGIWVTLGSEVFDVTEFVDLHPGGPSKLMLAAGGPLEPFWALYAVHNQSHVRELLAQYKIGELNPEDKVAPTVETSDPYADDPVRHPALKVNSQRPFNAEPPPELLTENYITPNPIFFTRNHLPVPNLDPDTYRLHVVGAPGGQSLSLSLDDLHNFPRYEITVTLQCAGNRRSEMTQVKEVKGLEWRTGAISTARWAGARLCDVLAQAGHQLCETEAHVCFEGLDSDPTGTAYGASIPLARAMDPEAEVLLAYEMNGQPLPRDHGFPVRVVVPGVVGARHVKWLGRVSVQPEESYSHWQRRDYKGFSPSVDWETVDFDSAPSIQELPVQSAITEPRDGETVESGEVTIKGYAWSGGGRAVIRVDVSLDGGLTWQVAKLDGEEQRPRKAWAWRLWQLKAPVPAGQKELNIVCKAVDDGYNVQPDTVAPIWNLRGVLSNAWHRVHVYVSP
B3: Ribose-phosphate pyrophosphokinase 1 (Homo sapiens), P60891 (parent)
chain: MPNIKIFSGSSHQDLSQKIADRLGLELGKVVTKKFSNQETCVEIGESVRGEDVYIVQSGCGEINDNLMELLIMINACKIASASRVTAVIPCFPYARQDKKDKSRAPISAKLVANMLSVAGADHIITMDLHASQIQGFFDIPVDNLYAEPAVLKWIRENISEWRNCTIVSPDAGGAKRVTSIADRLNVDFALIHKERKKANEVDRMVLVGDVKDRVAILVDDMADTCGTICHAADKLLSAGATRVYAILTHGIFSGPAISRINNACFEAVVVTNTIPQEDKMKHCSKIQVIDISMILAEAIRRTHNGESVSYLFSHVPL
partner: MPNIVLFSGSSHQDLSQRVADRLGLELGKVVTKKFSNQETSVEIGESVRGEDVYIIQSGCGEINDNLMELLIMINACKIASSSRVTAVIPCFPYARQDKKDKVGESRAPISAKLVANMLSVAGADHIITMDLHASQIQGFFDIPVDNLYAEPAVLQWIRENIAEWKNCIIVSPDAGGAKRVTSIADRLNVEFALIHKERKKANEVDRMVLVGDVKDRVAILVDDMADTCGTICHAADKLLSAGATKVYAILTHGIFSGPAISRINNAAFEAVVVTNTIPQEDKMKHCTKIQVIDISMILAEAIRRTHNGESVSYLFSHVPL
B4: Complement factor H-related protein 5 (Homo sapiens), Q9BXR6 (parent)
chain: MLLLFSVILISWVSTVGGEGTLCDFPKIHHGFLYDEEDYNPFSQVPTGEVFYYSCEYNFVSPSKSFWTRITCTEEGWSPTPKCLRMCSFPFVKNGHSESSGLIHLEGDTVQIICNTGYSLQNNEKNISCVERGWSTPPICSFTKGECHVPILEANVDAQPKKESYKVGDVLKFSCRKNLIRVGSDSVQCYQFGWSPNFPTCKGQVRSCGPPPQLSNGEVKEIRKEEYGHNEVVEYDCNPNFIINGPKKIQCVDGEWTTLPTCVEQVKTCGYIPELEYGYVQPSVPPYQHGVSVEVNCRNEYAMIGNNMITCINGIWTELPMCVATHQLKRCKIAGVNIKTLLKLSGKEFNHNSRIRYRCSDIFRYRHSVCINGKWNPEVDCTEKREQFCPPPPQIPNAQNMTTTVNYQDGEKVAVLCKENYLLPEAKEIVCKDGRWQSLPRCVESTAYCGPPPSINNGDTTSFPLSVYPPGSTVTYRCQSFYKLQGSVTVTCRNKQWSEPPRCLDPCVVSEENMNKNNIQLKWRNDGKLYAKTGDAVEFQCKFPHKAMISSPPFRAICQEGKFEYPICE
partner: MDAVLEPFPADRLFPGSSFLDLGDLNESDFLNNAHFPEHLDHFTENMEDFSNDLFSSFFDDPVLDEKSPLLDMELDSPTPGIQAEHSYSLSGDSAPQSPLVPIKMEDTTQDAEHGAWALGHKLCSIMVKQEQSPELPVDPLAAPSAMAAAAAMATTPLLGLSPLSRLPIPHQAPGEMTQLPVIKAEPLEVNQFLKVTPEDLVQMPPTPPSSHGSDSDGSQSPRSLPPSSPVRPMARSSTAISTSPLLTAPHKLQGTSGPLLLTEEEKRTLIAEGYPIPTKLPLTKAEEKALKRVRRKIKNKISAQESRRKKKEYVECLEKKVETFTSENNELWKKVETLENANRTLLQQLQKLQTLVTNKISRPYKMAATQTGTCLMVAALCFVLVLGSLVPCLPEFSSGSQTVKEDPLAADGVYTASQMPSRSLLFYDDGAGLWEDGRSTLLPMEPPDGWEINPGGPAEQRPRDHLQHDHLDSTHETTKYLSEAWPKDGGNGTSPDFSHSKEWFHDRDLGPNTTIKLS

One test covers variants of B1. Particulars: with kr108_human KRTAP10-8, P60410.
Regarding L107V, the “effect of a mutation on the interaction” value is listed as “with no effect”.

The variants in another test derive from B2. Particulars: with nup62_human NUP62, P37198.
nup62_human NUP62, P37198, sequence (P37198 whole entry): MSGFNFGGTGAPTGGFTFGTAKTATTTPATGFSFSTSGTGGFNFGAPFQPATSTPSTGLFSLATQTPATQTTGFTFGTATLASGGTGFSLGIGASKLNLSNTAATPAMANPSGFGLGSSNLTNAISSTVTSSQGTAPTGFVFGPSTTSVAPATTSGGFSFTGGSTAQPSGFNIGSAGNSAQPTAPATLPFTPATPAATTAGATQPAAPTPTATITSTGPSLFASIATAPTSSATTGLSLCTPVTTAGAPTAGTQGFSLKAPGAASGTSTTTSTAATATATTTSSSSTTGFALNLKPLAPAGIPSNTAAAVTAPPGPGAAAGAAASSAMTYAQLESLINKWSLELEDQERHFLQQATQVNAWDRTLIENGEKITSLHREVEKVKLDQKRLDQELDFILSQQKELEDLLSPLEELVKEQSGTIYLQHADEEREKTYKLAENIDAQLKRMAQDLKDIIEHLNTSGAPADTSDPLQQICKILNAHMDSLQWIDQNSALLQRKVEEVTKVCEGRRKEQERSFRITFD
Turning to Q396R, the “effect of a mutation on the interaction” value was “with no effect”. On the same count and under the same terms, under W450R stands “disrupting interaction strength”.

A further test covers variants of B3. Particulars: with PRPS2, P11908-2.
Take D183H: the “effect of a mutation on the interaction” value is “with no effect”. Regarding D52H, the “effect of a mutation on the interaction” value is on record as “with no effect”. Same read-out and setting: under N114S stands “with no effect”.

The variants in another test derive from B4. Particulars: with cr3l1_human CREB3L1, Q96BA8.
Take R356H: the “effect of a mutation on the interaction” value is given as “with no effect”.

Regarding K144N, the “effect of a mutation on the interaction” value is “with no effect”.

Consider G145E, for which the “effect of a mutation on the interaction” value is “with no effect”. Still for that read-out and setting: under M514R stands “with no effect”.
